In US12559559B2, “Targeting Galectin-9 as a therapeutic strategy for T-cell exhaustion in T-cell acute lymphoblastic leukemia” (DANA-FARBER CANCER INSTITUTE, INC., priority 2019, dated 2026):

Target: T1, Galectin-9 (LGALS9) (Homo sapiens, UniProt O00182)
T1 construct: cultured from normal donors with and without T-ALL supernatant (containing LGALS9) for three days; endogenous in cells; host or cells: DND-41 T-ALL cell line (culture supernatant)
Test: T-cell exhaustion functional assay / HAVCR2-LGALS9 pathway blocking in activated CD8+ T-cells (qRT-PCR)
Assay type: cell-based
Details: recombinant Galectin-9 2.5 μg/mL added to the culture, 72 hours
Protocol: HAVCR2 mRNA expression in activated CD8+ T-cells cultured with T-ALL supernatant (from DND-41 cells; orange) or control media (blue), in the presence/absence of anti-human Galectin-9 (10 μg/mL) or recombinant Galectin-9 (2.5 μg/mL). n.s. P>0.05, **P≤0.01 and ***P≤0.001, based on 3 technical replicates, using two-sided t-test.
T-cells were isolated using Easy Sep Human T-cell Enrichment kit (StemCell Technologies), activated and expanded with Dynabeads Human T-activator CD3/CD28 (ThermoFisher Scientific) in X-VIVO 15 (Lonza) with 5% of human AB serum, and 50 U/mL IL-2 (Miltenyi Biotech). For T-cell exhaustion functional assays, activated CD8′ T-cells were cultured in X-VIVO 15 media or in supernatant media of DND-41 cell line, with 50 U/mL IL-2. For HAVCR2-LSGAL9 pathway blocking experiments, activated CD8^+ T-cells were cultured in X-VIVO 15 media or in supernatant media of DND-41 T-ALL supplemented with anti-human Galectin-9 10 μg/mL (Thermo Fisher Scientific) or recombinant Galectin-9 2.5 μg/mL (R&D systems) for 72 hours.
RNA was isolated using RNeasy Mini Kit (Qiagen), followed by reverse transcription with SuperScript III Reverse Transcriptase (ThermoFisher Scientific). Gene expression was quantified by quantitative real-time PCR using Power SYBR Green PCR Master Mix (Applied Biosystems, Vial instrument). […]

T1 sequence (O00182 whole entry): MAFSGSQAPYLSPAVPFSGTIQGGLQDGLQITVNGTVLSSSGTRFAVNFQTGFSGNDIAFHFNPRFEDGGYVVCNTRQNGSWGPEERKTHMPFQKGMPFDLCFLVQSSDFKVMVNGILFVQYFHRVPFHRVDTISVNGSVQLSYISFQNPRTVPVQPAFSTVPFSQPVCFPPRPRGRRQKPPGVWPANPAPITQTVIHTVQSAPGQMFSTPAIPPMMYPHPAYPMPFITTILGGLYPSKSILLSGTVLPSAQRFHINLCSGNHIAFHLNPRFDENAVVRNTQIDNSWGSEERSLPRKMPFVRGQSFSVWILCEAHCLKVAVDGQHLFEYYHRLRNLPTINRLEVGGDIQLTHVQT

B1: recombinant soluble LGALS9: recombinant Galectin-9 (R&D systems), used at 2.5 μg/mL (protein)
chain: MAFSGSQAPYLSPAVPFSGTIQGGLQDGLQITVNGTVLSSSGTRFAVNFQTGFSGNDIAFHFNPRFEDGGYVVCNTRQNGSWGPEERKTHMPFQKGMPFDLCFLVQSSDFKVMVNGILFVQYFHRVPFHRVDTISVNGSVQLSYISFQNPRTVPVQPAFSTVPFSQPVCFPPRPRGRRQKTQTVIHTVQSAPGQMFSTPAIPPMMYPHPAYPMPFITTILGGLYPSKSILLSGTVLPSAQRFHINLCSGNHIAFHLNPRFDENAVVRNTQIDNSWGSEERSLPRKMPFVRGQSFSVWILCEAHCLKVAVDGQHLFEYYHRLRNLPTINRLEVGGDIQLTHVQT
- Exhaustion marker expression in activated CD8+ T-cells: upregulation of exhaustion markers
